We go through 2 molecules from patent US20250146022A1, “STABILISING THE HUMAN SPINDLE BY KIFC1/HSET” (MAX-PLANCK-GESELLSCHAFT ZUR FOERDERUNG DER WISSENSCHAFTEN …, priority 2021, published 2025).

The subject of one assay is mouse oocytes. Briefly: AURA inhibition in mouse oocytes, NUMA enrichment at spindle poles. In kind it is cell-based. The settings on record: constitutive treatment, 500 nM; data not shown. An excerpt:
aMTOCs enrich several regulatory kinases at the spindle poles in mouse oocytes (26). The inventors considered that AURA, which is an essential kinase for aMTOC functions (43, 44) and can phosphorylate NUMA (45), negatively regulates NUMA enrichment at microtubule minus-ends in mouse oocytes. […] To confirm that NUMA enrichment is regulated by AURA-dependent phosphorylation, the inventors depleted endogenous NUMA by follicle RNAi (39) and re-expressed NUMA with mutations at the AURA phosphorylation site S1969. […] Together, the inventors infer that AURA phosphorylation negatively regulates NUMA enrichment at microtubule minus-ends in mouse oocytes. All drugs were prepared in DMSO (Sigma-Aldrich) as 1000× stocks. […] Specific parameters used were: 0.1 (for microtubule packing index) or 1.0 (for SD of fluorescence intensity within spindle isosurface) μm for smoothing size, no background subtraction, 500-750 and 1000-1750 μm^3 for minimum and maximum expected total volume of surface object, respectively. SD of fluorescence intensity, volume and volume of the object-oriented minimum bounding box for the spindle isosurface were exported into Excel. Microtubule packing index was calculated by dividing the volume of spindle isosurface by the volume of the object-oriented minimum bounding box. […] Mean fluorescence intensity and volume of isosurfaces were exported into Excel. […]

Assay [1] has as its system KIFC1/HSET-depleted aMTOC-free mouse oocytes. Briefly: Rescue of spindle polarity in KIFC1/HSET-depleted aMTOC-free mouse oocytes (human oocyte mimics). In kind it is cell-based. The source says: This domain, together with the conserved, microtubule-binding motor domain, allows KIFC1/HSET to organize microtubules via crosslinking and/or sliding (86). To investigate the requirement of different domains in KIFC1/HSET, the inventors expressed a series of truncation mutants in aMTOC-free mouse oocytes (FIG. 7K). […] To examine whether the motor activity is dispensable for the function of KIFC1/HSET in aMTOC-free mouse oocytes, the inventors depleted endogenous KIFC1/HSET by follicle RNAi and restored expression with wild-type HSET or with HSET(N593K), which crosslinks microtubules but cannot slide (87). […] Together, the inventors infer that the appropriate level of KIFC1/HSET's crosslinking and sliding activities are required for proper bipolar spindle assembly in the absence of aMTOCs.
Mouse follicles were microinjected with 3.5 pl of siRNAs at a needle concentration of 2 μM as previously described (11). For rescue experiments, in vitro grown oocytes were microinjected with 3.5 pl of mRNAs. mClover3-HSET mRNA was microinjected at a needle concentration of 275 ng/μl, mClover3-HSET(N593K) mRNA at 275 ng/μl, mClover3-NUMA(S1955D) mRNA at 400 ng/μl, mClover3-NUMA(S1955A) mRNA at 400 ng/μl, mClover3-NUMA(SpM-4A) mRNA at 400 ng/μl, mClover3-NUMA(ΔMTBD1) mRNA at 400 ng/μl and mClover3-NUMA(ΔMTBD2) mRNA at 400 ng/μl. Oocytes were allowed to express the mRNAs for 3-4 h before release.
To obtain mouse MI spindles, oocytes were incubated at 37° C. for around 7 h after released into dbcAMP-free medium. To obtain porcine and bovine MI spindles, oocytes were incubated at 39° C./5% CO2 for around 11 and 12 h, respectively, after released into RO-3306-free medium. To obtain human MI spindles, oocytes were incubated at 37° C. for around 14 and 15 h after NEBD. None of the oocytes used for immunofluorescence analyses was subjected to live imaging before fixation.
Time-lapse movies of live mouse, bovine and porcine oocytes, and fixed human and mouse spindles were analyzed in 3D using Imaris (Bitplane). To determine the stages of meiosis and to score for spindle instability, the timing of meiotic progression was quantified relative to the timing of NEBD. NEBD was defined as the time point when the sharp boundary between the nucleus and cytoplasm disappeared in the differential interference contrast image (for mouse oocytes) or when the nucleus started collapsing in the H2B channel (for bovine and porcine oocytes). Spindle poles were defined as regions of MAP4 or MAP4-MTBD or α-tubulin intensity that prominently protruded from the main microtubule mass. In FIG. 1D, oocytes with bipolar spindle, in which ends of all microtubules converged at the poles, were scored as having focused poles. […] For mouse oocytes, unfocused poles were further classified into mildly unfocused poles (with partially separated microtubule ends) and severely unfocused poles (with fully separated microtubule ends). In FIG. 4D, bovine and porcine oocytes, in which the spindle maintained a barrel-shaped bipolar morphology and a detectable spindle axis, were scored as having stable spindle poles. Oocytes, in which the spindle lost their initial bipolarity and underwent dynamic remodeling of the pole(s) were scored as having unstable spindle poles. […] Oocytes, in which the spindle had more than two poles, were scored as having multipolar spindle. In FIG. 1H, mouse oocytes, in which the spindle had two well-defined poles, were scored as having bipolar spindle. Mouse oocytes, in which the spindle had two poorly defined poles, were scored as having apolar/round spindle. Mouse oocytes, in which the spindle had more than two poles, were scored as having multipolar spindle. […] Mouse oocytes, in which the spindle lost its barrel shape but contains several weakly associated microtubule bundles, were scored as having disorganized spindle.

For `COc1cc(Nc2ncc3c(n2)-c2ccc(Cl)cc2C(c2c(F)cccc2OC)=NC3)ccc1C(=O)O` [MLN8237], in the assay on mouse oocytes, the “NUMA enrichment at the spindle poles” value was “increased NUMA enrichment at the spindle poles”.

B1: wild-type HSET: Wild-type HSET re-expressed from microinjected mClover3-HSET mRNA in KIFC1/HSET-depleted aMTOC-free mouse oocytes (protein)
chain: MDPQRSPLLEVKGNIELKRPLIKAPSQLPLSGSRLKRRPDQMEDGLEPEKKRTRGLGATTKITTSHPRVPSLTTVPQTQGQTTAQKVSKKTGPRCSTAIATGLKNQKPVPAVPVQKSGTSGVPPMAGGKKPSKRPAWDLKGQLCDLNAELKRCRERTQTLDQENQQLQDQLRDAQQQVKALGTERTTLEGHLAKVQAQAEQGQQELKNLRACVLELEERLSTQEGLVQELQKKQVELQEERRGLMSQLEEKERRLQTSEAALSSSQAEVASLRQETVAQAALLTEREERLHGLEMERRRLHNQLQELKGNIRVFCRVRPVLPGEPTPPPGLLLFPSGPGGPSDPPTRLSLSRSDERRGTLSGAPAPPTRHDFSFDRVFPPGSGQDEVFEEIAMLVQSALDGYPVCIFAYGQTGSGKTFTMEGGPGGDPQLEGLIPRALRHLFSVAQELSGQGWTYSFVASYVEIYNETVRDLLATGTRKGQGGECEIRRAGPGSEELTVTNARYVPVSCEKEVDALLHLARQNRAVARTAQNERSSRSHSVFQLQISGEHSSRGLQCGAPLSLVDLAGSERLDPGLALGPGERERLRETQAINSSLSTLGLVIMALSNKESHVPYRNSKLTYLLQNSLGGSAKMLMFVNISPLEENVSESLNSLRFASKVNQCVIGTAQANRK
modifications: left off: large carriers
notes: Wild-type HSET re-expressed from microinjected mClover3-HSET mRNA in KIFC1/HSET-depleted aMTOC-free mouse oocytes
Consider B1, for which the “HSET to α-tubulin intensity ratio, more HSET loaded onto spindles with poorly focused poles” value in assay [1] (bipolar MI spindles rescued with wild-type HSET, FIG. 3I) is given as roughly 2 fold. Further, the “spindle polarity (manual scoring)” value in assay [1] (endogenous KIFC1/HSET depleted by follicle RNAi, expression restored from mRNA, MI oocytes, FIGS. 3, G and H) is “assembled a bipolar spindle”. Further, the “oocytes with a bipolar spindle but poorly focused poles that lacked NUMA” value in assay [1] (oocytes rescued with wild-type HSET, FIG. 3G) was “around 25%”.
